Experiments:
[1] = target: Human wt β amyloid peptide 1-40 (amyloid precursor protein (APP) fragment 1-40; Sigma-Aldrich) (human); test: reverse ELISA: PAP without peptide on plate coated with human wt β amyloid peptide 1-40
[2] = target: Human wt tau protein (441 residues; Sigma-Aldrich) (human) (UniProt P10636); test: reverse ELISA: PAP without peptide on plate coated with human wt tau
Highly purified FcγIII = test: reverse ELISA: PAP without peptide on FcγIII-coated plate
Highly purified FcγIIa = test: reverse ELISA: PAP without peptide on FcγIIa-coated plate
Highly purified FcγIIb = test: reverse ELISA: PAP without peptide on FcγIIb-coated plate
[3] = target: Purified human C1q (Quidel Corp.) (human) (UniProt P02745); test: reverse ELISA: PAP without competitor on C1q-coated plate
Chain of Purified human C1q (Quidel Corp.) (human) (P02745 23-245 limits assumed, chain 1 of 3): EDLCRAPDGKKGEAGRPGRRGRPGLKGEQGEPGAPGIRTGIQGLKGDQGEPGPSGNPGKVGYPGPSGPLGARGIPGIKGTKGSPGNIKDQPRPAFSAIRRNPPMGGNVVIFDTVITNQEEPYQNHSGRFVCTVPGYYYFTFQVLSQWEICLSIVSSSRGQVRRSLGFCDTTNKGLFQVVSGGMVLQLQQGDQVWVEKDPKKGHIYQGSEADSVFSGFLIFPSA
Chain of Purified human C1q (Quidel Corp.) (human) (P02746 28-253 limits assumed, chain 2 of 3, further chain): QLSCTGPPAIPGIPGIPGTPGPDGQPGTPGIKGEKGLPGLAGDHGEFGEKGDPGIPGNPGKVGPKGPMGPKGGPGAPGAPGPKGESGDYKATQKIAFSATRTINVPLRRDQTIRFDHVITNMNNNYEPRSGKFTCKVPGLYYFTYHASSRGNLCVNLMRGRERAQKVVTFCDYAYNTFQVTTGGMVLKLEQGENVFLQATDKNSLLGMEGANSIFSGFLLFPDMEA
Chain of Purified human C1q (Quidel Corp.) (human) (P02747 29-245 limits assumed, chain 3 of 3, further chain): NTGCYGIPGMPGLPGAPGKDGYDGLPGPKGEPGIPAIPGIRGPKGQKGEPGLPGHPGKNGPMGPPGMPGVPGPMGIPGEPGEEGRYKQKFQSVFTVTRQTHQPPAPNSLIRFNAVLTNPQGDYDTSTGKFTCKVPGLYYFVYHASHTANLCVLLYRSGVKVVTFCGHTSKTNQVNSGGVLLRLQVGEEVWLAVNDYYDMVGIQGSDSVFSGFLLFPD

Chain of Preformed immune complex of peroxidase and rabbit anti-peroxidase IgG (PAP complex) (P00433 31-338, one chain of several): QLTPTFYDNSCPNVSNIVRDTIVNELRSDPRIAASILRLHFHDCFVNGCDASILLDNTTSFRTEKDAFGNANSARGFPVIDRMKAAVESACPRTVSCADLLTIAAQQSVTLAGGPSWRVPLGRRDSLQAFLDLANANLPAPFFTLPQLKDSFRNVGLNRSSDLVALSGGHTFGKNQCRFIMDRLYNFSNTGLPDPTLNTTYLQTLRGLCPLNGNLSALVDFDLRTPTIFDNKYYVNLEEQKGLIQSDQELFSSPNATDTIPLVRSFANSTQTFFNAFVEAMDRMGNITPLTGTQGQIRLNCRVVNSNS
Chain of Human wt tau protein (441 residues; Sigma-Aldrich) (human) (P10636 other isoform, or with tags, fused parts or gaps limits assumed): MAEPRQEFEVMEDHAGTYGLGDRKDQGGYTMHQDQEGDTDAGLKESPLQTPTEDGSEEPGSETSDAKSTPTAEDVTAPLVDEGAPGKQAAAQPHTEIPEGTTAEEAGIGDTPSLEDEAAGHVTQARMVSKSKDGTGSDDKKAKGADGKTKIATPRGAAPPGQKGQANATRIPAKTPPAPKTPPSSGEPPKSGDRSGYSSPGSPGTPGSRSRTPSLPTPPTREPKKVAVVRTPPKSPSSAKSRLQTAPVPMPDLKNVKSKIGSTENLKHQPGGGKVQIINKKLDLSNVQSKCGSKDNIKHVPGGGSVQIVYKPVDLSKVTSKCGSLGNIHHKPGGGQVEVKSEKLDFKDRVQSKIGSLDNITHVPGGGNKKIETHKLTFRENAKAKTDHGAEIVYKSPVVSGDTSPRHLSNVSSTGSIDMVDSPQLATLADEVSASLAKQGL

Work on “Preformed immune complex of peroxidase and rabbit anti-peroxidase IgG (PAP complex) (from UniProt P00433 31-338)” yielded an OD 405 nm [1] of 3.28 OD, an OD 405 nm [2] of 0.695 OD and an OD 405 nm (Highly purified FcγIII) of 1.59 OD. For the same substance, the OD 405 nm (Highly purified FcγIIa) was 1.6 OD, the OD 405 nm (Highly purified FcγIIb) was 1.39 OD and the OD 405 nm [3] was 2.35 OD.

Source: US20080207498A1, “Methods for Treating Alzheimer's Disease” (priority 2005, published 2008)
